One molecule from patent US20200231654A1 (published 2020) can be followed below.

Experiment [1] addresses active mMMP-9(cat)_FLAG_Avi (UniProt P41245 108-450). Briefly: enzyme inhibition; substrate peptide.
For experiment [2], the target named is MMP-10 (catalytic domain) (human), (recombinant) (human, UniProt P09238 99-266). Nature of the experiment: enzyme inhibition.
The target of experiment [3] is human MMP-3 activated by APMA (human, UniProt P08254 100-477). Briefly: enzyme inhibition.
The target in experiment [4] is biotin-labeled active hMMP-9(cat)_FLAG_Avi (UniProt P14780 107-449, biotin on the Avi tag (biotin ligase BirA)). Nature of the experiment: ELISA. Background: ELISA stands for enzyme-linked immunosorbent assay.
biotin-labeled active hMMP-9(cat)_FLAG_Avi, sequence (P14780 other isoform, or with tags, fused parts or gaps): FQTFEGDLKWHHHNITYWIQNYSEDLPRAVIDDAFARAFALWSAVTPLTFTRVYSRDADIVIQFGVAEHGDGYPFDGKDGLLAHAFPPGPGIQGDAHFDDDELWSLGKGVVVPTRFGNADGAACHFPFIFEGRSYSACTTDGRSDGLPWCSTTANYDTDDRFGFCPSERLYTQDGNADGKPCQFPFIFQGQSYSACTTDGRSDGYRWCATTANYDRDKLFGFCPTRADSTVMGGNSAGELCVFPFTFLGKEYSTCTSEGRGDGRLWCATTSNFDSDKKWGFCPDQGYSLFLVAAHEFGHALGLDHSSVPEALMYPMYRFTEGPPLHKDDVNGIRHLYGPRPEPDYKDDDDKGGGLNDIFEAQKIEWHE
For experiment [5], the target named is active hMMP-9(cat)_His6 (UniProt P14780 107-449). Briefly: enzyme inhibition; substrate peptide.
active hMMP-9(cat)_His6, sequence (P14780 107-449): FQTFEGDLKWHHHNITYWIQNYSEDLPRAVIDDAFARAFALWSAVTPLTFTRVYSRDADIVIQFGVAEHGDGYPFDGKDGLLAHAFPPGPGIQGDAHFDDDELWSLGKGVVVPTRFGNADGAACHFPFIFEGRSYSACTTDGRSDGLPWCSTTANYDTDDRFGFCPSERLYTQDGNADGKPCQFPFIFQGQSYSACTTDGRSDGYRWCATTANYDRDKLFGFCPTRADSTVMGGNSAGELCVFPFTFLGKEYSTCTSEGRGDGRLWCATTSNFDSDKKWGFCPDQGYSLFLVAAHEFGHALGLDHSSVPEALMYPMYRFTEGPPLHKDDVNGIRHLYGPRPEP
Experiment [6] addresses Tryptase from human lung (human, UniProt Q15661 31-275). Nature of the experiment: substrate peptide degradation inhibition.
Experiment [7] concerns the target tissue plasminogen activator human (human, UniProt P00750 36-562). Nature of the experiment: substrate peptide degradation inhibition.
The target of experiment [8] is Trypsin from Human Pancreas (human, UniProt P07477 24-247). Briefly: substrate peptide degradation inhibition.
In experiment [9] the target is Protein C from human plasma (human, UniProt P04070 43-461). Nature of the experiment: substrate peptide degradation inhibition.
Protein C from human plasma, sequence (P04070 43-461): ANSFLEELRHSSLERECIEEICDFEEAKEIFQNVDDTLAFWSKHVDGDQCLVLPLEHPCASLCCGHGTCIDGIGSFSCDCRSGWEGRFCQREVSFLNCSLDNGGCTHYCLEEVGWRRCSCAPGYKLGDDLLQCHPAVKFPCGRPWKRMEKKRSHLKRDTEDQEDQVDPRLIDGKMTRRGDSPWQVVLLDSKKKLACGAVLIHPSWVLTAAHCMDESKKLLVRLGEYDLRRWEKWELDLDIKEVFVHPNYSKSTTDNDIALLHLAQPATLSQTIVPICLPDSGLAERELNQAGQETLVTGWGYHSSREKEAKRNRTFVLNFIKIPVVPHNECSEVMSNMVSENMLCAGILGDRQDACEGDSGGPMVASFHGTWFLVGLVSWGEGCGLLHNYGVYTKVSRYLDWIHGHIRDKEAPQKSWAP
The target in experiment [10] is T1, Plasmin from human plasma (human, UniProt P00747 97-810).
T1 chain: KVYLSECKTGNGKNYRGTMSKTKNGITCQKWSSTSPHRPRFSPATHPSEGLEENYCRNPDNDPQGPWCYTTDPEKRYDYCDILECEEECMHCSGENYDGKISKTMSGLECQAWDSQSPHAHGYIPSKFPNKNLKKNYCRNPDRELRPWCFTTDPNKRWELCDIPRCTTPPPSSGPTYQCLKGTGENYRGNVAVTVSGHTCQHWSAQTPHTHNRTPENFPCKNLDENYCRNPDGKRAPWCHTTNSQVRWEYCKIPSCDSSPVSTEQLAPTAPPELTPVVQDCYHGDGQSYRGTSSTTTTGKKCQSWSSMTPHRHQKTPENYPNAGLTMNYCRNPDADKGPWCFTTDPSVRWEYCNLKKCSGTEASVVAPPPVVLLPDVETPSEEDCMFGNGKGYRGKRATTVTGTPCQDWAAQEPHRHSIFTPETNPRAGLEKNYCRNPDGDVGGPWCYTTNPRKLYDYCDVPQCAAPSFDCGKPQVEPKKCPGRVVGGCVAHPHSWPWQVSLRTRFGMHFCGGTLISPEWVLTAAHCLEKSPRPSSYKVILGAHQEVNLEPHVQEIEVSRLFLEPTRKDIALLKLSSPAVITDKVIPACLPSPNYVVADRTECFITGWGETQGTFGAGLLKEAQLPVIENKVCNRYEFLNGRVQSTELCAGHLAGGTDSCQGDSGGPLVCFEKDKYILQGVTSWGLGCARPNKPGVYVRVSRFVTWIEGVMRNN
Nature of the experiment: substrate peptide degradation inhibition.

The target of experiment [11] is T2, Recombinant Human Matriptase/ST14 Catalytic Domain (human, UniProt Q9Y5Y6 596-855).
T2 chain: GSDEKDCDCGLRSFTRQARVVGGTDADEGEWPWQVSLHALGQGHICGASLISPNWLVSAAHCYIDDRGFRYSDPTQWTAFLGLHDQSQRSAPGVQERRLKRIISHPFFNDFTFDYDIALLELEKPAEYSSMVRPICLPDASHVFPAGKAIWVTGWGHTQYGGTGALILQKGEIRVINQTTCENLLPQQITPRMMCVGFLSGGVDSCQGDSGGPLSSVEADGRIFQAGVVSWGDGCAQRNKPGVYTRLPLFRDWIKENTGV
Briefly: substrate peptide degradation inhibition.

Experiment [12] addresses recombinant human plasma kallikrein/KLKB1 Protein (human, UniProt P03952 20-638). Nature of the experiment: substrate peptide degradation inhibition.
Experiment [13] deals with urokinase from human urine (human, UniProt P00749 21-431). Nature of the experiment: substrate peptide degradation inhibition.
Experiment [14] addresses Thrombin from human plasma (human, UniProt P00734 328-622). Briefly: substrate peptide degradation inhibition.
Experiment [15] deals with T3, Neutrophil elastase (human) (human, UniProt P08246 30-247).
T3 chain: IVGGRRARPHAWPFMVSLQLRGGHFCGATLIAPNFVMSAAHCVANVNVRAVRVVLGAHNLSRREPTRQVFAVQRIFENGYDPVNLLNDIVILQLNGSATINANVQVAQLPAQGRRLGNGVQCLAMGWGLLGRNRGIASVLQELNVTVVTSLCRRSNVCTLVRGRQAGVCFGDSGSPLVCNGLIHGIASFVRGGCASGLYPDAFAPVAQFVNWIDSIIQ
Briefly: substrate peptide degradation inhibition.

The target of experiment [16] is T4, Chymase human recombinant expressed in Pichia pastoris (human, UniProt P23946 22-247).
T4 chain: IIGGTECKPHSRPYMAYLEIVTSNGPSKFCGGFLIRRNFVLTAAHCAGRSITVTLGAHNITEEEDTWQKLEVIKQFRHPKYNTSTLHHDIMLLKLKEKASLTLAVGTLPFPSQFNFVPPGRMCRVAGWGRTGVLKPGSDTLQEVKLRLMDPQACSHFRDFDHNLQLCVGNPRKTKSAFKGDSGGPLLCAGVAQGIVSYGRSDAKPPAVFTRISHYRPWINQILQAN
Briefly: substrate peptide degradation inhibition.

Experiment [17] deals with α-Chymotrypsin from human pancreas (human, UniProt P17538 19-263). Nature of the experiment: substrate peptide degradation inhibition.
α-Chymotrypsin from human pancreas, sequence (P17538 19-263): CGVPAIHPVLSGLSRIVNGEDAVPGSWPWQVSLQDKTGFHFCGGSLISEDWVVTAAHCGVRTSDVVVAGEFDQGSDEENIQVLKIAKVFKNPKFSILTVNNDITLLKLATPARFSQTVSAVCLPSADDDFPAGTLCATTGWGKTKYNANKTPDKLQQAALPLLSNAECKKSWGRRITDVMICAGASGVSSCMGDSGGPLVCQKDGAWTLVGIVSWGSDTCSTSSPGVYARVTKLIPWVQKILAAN

human MMP-3 activated by APMA, sequence (P08254 100-477): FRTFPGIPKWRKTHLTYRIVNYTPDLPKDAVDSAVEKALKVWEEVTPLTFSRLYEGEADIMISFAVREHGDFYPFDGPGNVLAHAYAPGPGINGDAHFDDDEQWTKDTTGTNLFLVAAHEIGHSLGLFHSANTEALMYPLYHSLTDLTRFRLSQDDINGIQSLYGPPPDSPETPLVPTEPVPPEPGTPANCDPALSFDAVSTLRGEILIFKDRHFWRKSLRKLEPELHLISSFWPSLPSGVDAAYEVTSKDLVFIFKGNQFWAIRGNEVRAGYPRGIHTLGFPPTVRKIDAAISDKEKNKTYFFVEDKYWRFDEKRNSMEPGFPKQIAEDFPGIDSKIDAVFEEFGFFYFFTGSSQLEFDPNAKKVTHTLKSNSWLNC
recombinant human plasma kallikrein/KLKB1 Protein, sequence (P03952 20-638): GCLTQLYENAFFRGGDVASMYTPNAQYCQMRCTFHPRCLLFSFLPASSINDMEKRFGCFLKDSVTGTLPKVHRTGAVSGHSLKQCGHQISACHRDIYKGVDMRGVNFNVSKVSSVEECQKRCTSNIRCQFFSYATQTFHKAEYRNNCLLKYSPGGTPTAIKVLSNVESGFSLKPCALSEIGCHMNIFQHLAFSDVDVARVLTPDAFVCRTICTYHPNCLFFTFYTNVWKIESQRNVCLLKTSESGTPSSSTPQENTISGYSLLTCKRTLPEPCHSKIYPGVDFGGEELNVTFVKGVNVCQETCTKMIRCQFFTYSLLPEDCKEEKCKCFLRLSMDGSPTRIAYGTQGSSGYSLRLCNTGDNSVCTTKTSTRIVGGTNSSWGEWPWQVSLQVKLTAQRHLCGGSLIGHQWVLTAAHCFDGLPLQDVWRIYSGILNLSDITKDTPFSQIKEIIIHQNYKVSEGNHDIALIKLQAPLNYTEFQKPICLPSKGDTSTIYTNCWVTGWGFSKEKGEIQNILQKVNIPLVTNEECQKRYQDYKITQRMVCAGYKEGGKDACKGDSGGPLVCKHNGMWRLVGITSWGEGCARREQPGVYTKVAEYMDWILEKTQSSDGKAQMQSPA
Tryptase from human lung, sequence (Q15661 31-275): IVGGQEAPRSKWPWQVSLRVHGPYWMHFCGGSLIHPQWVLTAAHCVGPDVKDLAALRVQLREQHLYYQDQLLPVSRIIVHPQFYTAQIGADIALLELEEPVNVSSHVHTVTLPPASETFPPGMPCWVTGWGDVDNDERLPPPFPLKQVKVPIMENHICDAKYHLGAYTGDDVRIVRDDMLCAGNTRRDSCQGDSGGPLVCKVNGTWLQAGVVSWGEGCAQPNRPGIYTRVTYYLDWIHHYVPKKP
MMP-10 (catalytic domain) (human), (recombinant), sequence (P09238 99-266): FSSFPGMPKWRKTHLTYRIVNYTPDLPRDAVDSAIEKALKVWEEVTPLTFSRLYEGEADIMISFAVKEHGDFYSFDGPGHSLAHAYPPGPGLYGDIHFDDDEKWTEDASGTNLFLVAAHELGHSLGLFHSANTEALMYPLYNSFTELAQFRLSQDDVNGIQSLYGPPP
tissue plasminogen activator human, sequence (P00750 36-562): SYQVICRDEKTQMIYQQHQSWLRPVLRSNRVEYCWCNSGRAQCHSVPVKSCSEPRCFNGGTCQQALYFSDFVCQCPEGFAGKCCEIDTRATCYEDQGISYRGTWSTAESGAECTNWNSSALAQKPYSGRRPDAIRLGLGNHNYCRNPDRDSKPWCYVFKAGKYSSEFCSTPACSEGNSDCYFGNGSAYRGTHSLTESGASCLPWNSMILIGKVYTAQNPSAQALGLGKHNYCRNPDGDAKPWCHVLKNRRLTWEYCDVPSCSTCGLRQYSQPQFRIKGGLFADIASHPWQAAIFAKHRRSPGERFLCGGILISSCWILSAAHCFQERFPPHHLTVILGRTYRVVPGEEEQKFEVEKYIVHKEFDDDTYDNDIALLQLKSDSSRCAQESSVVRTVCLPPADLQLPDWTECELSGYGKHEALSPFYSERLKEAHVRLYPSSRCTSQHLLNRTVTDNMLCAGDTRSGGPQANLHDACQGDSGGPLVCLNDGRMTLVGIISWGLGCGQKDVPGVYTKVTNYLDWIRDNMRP
active mMMP-9(cat)_FLAG_Avi, sequence (P41245 other isoform, or with tags, fused parts or gaps): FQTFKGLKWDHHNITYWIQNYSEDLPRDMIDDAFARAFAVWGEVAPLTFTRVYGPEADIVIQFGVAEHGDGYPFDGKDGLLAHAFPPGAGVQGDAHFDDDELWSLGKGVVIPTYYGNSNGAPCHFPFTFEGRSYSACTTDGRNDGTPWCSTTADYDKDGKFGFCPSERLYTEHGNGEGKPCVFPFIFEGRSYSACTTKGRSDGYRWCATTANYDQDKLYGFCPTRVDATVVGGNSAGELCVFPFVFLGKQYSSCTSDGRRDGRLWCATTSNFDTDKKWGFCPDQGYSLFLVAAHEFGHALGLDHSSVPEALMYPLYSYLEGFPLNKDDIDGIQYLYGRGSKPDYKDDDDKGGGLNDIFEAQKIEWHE

B1: active MMP-9-binding peptide M91005 (designed binder)
chain: GSGMKETAAAKFERQHMDSPDLGTDDDDKAMADIGSANSDPQFGLFSKYRTPNCRKRGGPSCQMSYNPVCGSDMSTYANECTLCMKIREGGHNIKIIRNGPCGASAAA
Usually IC50 stands for the concentration that gives 50% inhibition. The EC50 is the concentration giving half of the maximal effect. As a reminder, the Ki is the dissociation constant of the complex between target and ligand, obtained from inhibition or displacement. On to B1, for which the 50% inhibitory concentration (IC50) in experiment [1] was 0.0084 µM; in experiment [2], > 1 µM; in experiment [3] it was > 1 µM; in [6], > 1 µM; in experiment [7] it was > 1 µM; in [8], > 1 µM. Further, the IC50 in [9], in experiment [10], in [11], in experiment [12], in experiment [13] and in [14] was > 1 µM throughout. Further, the 50% inhibitory concentration (IC50) in experiment [15], in [16] and in [17] was > 1 µM throughout. Moreover, in experiment [4], the EC50 was 0.046 µM. Further, in [5], affinity was put at a Ki of 0.0014 µM.
